Results as given in patent US20160145352A1 (INSTITUT NATIONAL DE LA RECHERCHE AGRONOMIQUE, published 2016).

What was measured:
[1] = biological target: H4 histone (in total histones acid-extracted from HT1080 human cells) (human, UniProt P62805 2-103); experiment: immunoblot on acid-extracted total histones of HT1080 cells, overlaid on Ponceau red staining
[2] = biological target: H2B histone in the monomeric state (HPLC-purified fraction) (human, UniProt P62807 2-126); experiment: immunoblot on HPLC-purified histones, VHH-HA plus anti-HA, HRP/ECL
Protocol: (§1) After blocking in TBS-T (Tris buffered saline, 0.1% Tween® 20), 5% skimmed milk, the membrane is incubated for 1 h in a dilution of the VHH-HA polypeptide (5 μg/ml) combined with an anti-HA antibody (HA-11 mouse monoclonal 16B12 from Covance) diluted to 1 μg/ml in TBS-T, 5% skimmed milk. The membranes are also probed with the anti-H2AX (Epitomics clone EPR895) and anti-γH2AX (Millipore) monoclonal antibodies. After 3 washes in TBS-T, the blot is incubated with the anti-mouse secondary antibody coupled to horseradish peroxidase (HRP) (Cell Signaling), then washed 3 times for 10 min. Visualization is carried out with an ECL substrate (Enhanced Chemiluminescence West Dura Thermo scientific). The chemiluminescence photon emission is captured by a camera (G-Box Syngene).
(§2) To this effect, the proteins of the fractions thus obtained, in particular of the fractions containing H2A, H2B and H3, and also a mixture of the H2A and H2B fractions, are separated by electrophoresis in a denaturing polyacrylamide gel (NuPage® Bis Tris, Life Technologies), then transferred onto a nitrocellulose membrane. The visualization is carried out according to the protocol described above.

[3] = biological target: H3 histone (HPLC-purified fraction) (human, UniProt P68431 2-136); experiment: as above
Protocol: as §1, §2

| binding result [1] | binding result [2] | binding result [3] | Binder |
| --- | --- | --- | --- |
| no binding (tested: 5 µg/ml) | no binding (tested: 5 µg/ml) | no binding (tested: 5 µg/ml) | C25-HA polypeptide (VHH C25 fused to the HA tag) (VHH, Secreted into E. coli culture medium from pHEN4-VHH; also called VHH-HA; not shown: HA tag from the pHEN4 vector) VHH: QVQLQASGGGLVQAGESLTLSCDASGRTFSIGAMGWFRQAPGKEREFLAAINWNGGYTSYADVASGRFTISRNAKNTVYLQMNSLQPEDTAVYYCAAKYGGSARSRTYDYWGQGTQVTVS |
| no binding (tested: 5 µg/ml) | no binding (tested: 5 µg/ml) | no binding (tested: 5 µg/ml) | C76-HA polypeptide (VHH C76 fused to the HA tag) (VHH, Secreted into E. coli culture medium from pHEN4-VHH; also called C75-HA (as printed in Experiment 2); VHH-HA; not shown: HA tag from the pHEN4 vector) VHH: QVQLQASGGGLVQAGGSLRLSCAVSGGTLSSYTMGWFRQAPGKEREFVSALSRVGGKSDYADSVKGRFTISRNAKNTVYLQMNSLKPEDTAVYYCAAGGYSRRWSAYNYWGQGTQVTVS |
| no binding (tested: 5 µg/ml) | no binding (tested: 5 µg/ml) | no binding (tested: 5 µg/ml) | S2-HA polypeptide (VHH S2 fused to the HA tag) (VHH, Secreted into E. coli culture medium from pHEN4-VHH; it calls it the VHH domain; also called VHH-HA; not shown: HA tag from the pHEN4 vector) VHH: QVQLQASGGGLVQAGDSLRLSCAAAGRSFSSYAMGWFRQAPGKEREFVAAISRSRGVTYADSVKGRFTISKDNVKNMAYLQMNSLKPEDTGVYYCAATSSGSTRQLSTGRSNYWGQGTQVTVS |
